Experimental data published in US20210309751A1.

Assays:
[1] = molecular target: CD123 (interleukin-3 receptor a chain) on CD123-expressing OCI-AML3 blasts (human) (UniProt P26951); experiment: binding assay on CD123-expressing OCI-AML3 cells
[2] = molecular target: RevCAR harboring the La 5B9 epitope tag, on RevCAR expressing cells (human); experiment: binding assay on RevCAR expressing target cells

Chain of UniProt P26951 (P26951 19-378): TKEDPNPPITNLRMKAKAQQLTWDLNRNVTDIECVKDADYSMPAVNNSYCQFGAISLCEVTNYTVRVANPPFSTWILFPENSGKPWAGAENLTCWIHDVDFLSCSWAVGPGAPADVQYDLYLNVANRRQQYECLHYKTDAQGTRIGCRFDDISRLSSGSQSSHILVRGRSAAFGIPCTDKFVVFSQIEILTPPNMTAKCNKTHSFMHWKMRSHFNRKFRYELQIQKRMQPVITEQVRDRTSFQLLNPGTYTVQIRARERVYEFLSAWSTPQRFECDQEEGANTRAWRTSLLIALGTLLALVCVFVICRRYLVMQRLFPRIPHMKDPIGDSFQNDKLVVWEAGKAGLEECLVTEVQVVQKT

- Kd [1]: 0.015 nM
- Kd [2]: 0.012 nM
B1: AdMo CD123-La5B9 (CD123-specific adapter module with an scFv recognizing the La 5B9 epitope) (bispecific antibody, part only; not given: linkers, domain order, tags, V domains shown, not shown: another chain or arm of the molecule; small tags and cut ends)
VH 1: QVQLVQSGAEVKKPGASVKVSCKASGYTFTHYYIYWVRQAPGQGLEWMGGVNPSNGGTHFNEKFKSRVTMTRDTSISTAYMELSRLRSDDTAVYYCARSEYDYGLGFAYWGQGTLVTVSS
VL 1: DIVMTQSPDSLAVSLGERATINCKSSQSLLNSRTPKNYLAWYQQKPGQPPKLLIYWASTRKSGVPDRFSGSGSGTDFTLTISSLQAEDVAVYYCKQSYNLLTFGGGTKVEIK
VH 2: EVQLQQSGPELVKPGASVKMSCKASGYTFTDYYMKWVKQSHGKSLEWIGDIIPSNGATFYNQKFKGKATLTVDRSSSTAYMHLNSLTSEDSAVYYCTRSHLLRASWFAYWGQGTLVTVS
VL 2: DFVMTQSPSSLTVTAGEKVTMSCKSSQSLLNSGNQKNYLTWYLQKPGQPPKLLIYWASTRESGVPDRFTGSGSGTDFTLTISSVQAEDLAVYYCQNDYSYPYTFGGGTKLEIK
